Measurements published in article PMC8693953 (Molecular Biology of the Cell, 2021).

target: proline-rich tyrosine kinase 2 (Pyk2) (UniProt Q14289 1-1009); test: pull-down
Sequence (Q14289 whole entry): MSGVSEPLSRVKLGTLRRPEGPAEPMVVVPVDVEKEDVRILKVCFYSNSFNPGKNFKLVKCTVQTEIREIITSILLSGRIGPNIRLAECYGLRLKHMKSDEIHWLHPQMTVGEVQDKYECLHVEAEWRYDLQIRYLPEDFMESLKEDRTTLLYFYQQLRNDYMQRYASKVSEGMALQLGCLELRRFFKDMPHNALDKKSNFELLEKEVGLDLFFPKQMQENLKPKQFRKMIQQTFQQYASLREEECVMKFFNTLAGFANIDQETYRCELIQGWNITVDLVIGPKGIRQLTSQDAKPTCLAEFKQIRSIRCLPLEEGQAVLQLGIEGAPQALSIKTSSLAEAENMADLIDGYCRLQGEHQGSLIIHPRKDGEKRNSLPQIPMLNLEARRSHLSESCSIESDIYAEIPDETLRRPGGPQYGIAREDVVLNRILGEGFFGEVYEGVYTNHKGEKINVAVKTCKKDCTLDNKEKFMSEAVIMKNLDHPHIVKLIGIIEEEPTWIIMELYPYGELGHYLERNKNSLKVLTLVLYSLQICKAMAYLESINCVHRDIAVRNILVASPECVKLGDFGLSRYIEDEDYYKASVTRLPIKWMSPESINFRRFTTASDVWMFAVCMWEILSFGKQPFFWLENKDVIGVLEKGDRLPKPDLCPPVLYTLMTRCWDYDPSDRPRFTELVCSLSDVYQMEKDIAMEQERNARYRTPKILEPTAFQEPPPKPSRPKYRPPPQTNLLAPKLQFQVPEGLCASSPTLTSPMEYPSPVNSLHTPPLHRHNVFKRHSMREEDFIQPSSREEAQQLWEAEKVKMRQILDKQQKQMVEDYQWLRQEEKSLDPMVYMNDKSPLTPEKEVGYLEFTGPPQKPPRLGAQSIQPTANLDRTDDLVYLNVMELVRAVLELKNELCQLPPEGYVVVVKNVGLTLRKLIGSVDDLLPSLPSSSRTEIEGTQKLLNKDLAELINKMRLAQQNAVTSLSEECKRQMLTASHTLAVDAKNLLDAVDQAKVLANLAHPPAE

Row | Binder | Kd
1 | GST-CrkII (recombinant chicken CrkII, wild type) (natural protein, UniProt Q04929 1-305, looked up) MAGQFDSEDRGSWYWGRLSRGDAVSLLQGQRHGTFLVRDSGSIPGDFVLSVSESSRVSHYIVNSLGPAGGRRAGGEGPGAPGLNPTRFRIGDQEFDSLPSLLEFYKIHYLDTTTLIEPVSRSRQNSGVILRQEEVEYVRALFDFNGNDDEDLPFKKGDILKIRDKPEEQWWNAEDMDGKRGMIPVPYVEKCRPSSASVSTLTGGNQDSSHPQPLGGPEPGPYAQPSINTPLPNLQNGPFYARVIQKRVPNAYDKTALALEVGELVKVTKINMSGQWEGECNGKRGHFPFTHVRLLDQQNPDEDFS | 150 ± 30 nM
2 | GST-CrkCSH3 (CrkII W276K, mutation at the C-terminal SH3 domain) (natural protein, chicken, UniProt Q04929 1-305, looked up) MAGQFDSEDRGSWYWGRLSRGDAVSLLQGQRHGTFLVRDSGSIPGDFVLSVSESSRVSHYIVNSLGPAGGRRAGGEGPGAPGLNPTRFRIGDQEFDSLPSLLEFYKIHYLDTTTLIEPVSRSRQNSGVILRQEEVEYVRALFDFNGNDDEDLPFKKGDILKIRDKPEEQWWNAEDMDGKRGMIPVPYVEKCRPSSASVSTLTGGNQDSSHPQPLGGPEPGPYAQPSINTPLPNLQNGPFYARVIQKRVPNAYDKTALALEVGELVKVTKINMSGQKEGECNGKRGHFPFTHVRLLDQQNPDEDFS | 134 ± 34 nM
3 | GST-CrkSH2 (CrkII R38K, mutation at the N-terminal SH2 domain) (natural protein, chicken, UniProt Q04929 1-305, looked up) MAGQFDSEDRGSWYWGRLSRGDAVSLLQGQRHGTFLVKDSGSIPGDFVLSVSESSRVSHYIVNSLGPAGGRRAGGEGPGAPGLNPTRFRIGDQEFDSLPSLLEFYKIHYLDTTTLIEPVSRSRQNSGVILRQEEVEYVRALFDFNGNDDEDLPFKKGDILKIRDKPEEQWWNAEDMDGKRGMIPVPYVEKCRPSSASVSTLTGGNQDSSHPQPLGGPEPGPYAQPSINTPLPNLQNGPFYARVIQKRVPNAYDKTALALEVGELVKVTKINMSGQWEGECNGKRGHFPFTHVRLLDQQNPDEDFS | 508 ± 158 nM
